These results are taken from patent US20220401537A1.

This test addresses recombinant human ROR1 ectodomain containing a C-terminal Avi tag, biotinylated (human) (UniProt Q01973). Put plainly: cell-based or functional assay.
Chain of UniProt Q01973 (Q01973 30-406): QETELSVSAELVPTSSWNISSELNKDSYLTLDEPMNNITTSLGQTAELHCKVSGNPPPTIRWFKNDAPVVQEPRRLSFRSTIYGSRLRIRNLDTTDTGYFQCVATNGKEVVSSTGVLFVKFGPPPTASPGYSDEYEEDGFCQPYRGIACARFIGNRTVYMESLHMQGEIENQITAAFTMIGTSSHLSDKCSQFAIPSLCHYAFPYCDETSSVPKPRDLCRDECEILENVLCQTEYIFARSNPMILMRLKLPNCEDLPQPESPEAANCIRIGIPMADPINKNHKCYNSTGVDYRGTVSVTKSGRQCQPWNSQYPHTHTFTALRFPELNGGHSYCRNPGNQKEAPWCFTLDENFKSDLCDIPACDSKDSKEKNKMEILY

“ROR1-specific 4-1BB/CD3ζ CAR backbone containing a StrepTag II (STII) sequence and two G4S linkers inserted between the R12 scFv and IgG4 hinge (from UniProt P10747 153-179; Q07011 214-255; P20963 52-163)”: the fraction of CAR T cells activated (Ca2+ mobilization, Fluo-4) during 20 minutes on a ROR1-containing bilayer is below 10%.
